Measurements taken from publication doi:10.1101/2025.05.01.651538.

Target: wild-type unmodified 147bp nucleosome (nucleosome core particle, human histones)
Test: EMSA
Conditions: chain shown with the change; 0-32 µM KDM5A^MutR titrated against 147bp nucleosome

Kd: 14 µM
B1: KDM5A^CAT (KDM5A 1–801, minimal catalytically active construct), P29375 R210A; R217A; R219A; R220A; R232A; R264A; R265A; R266A; R271A; R280A; R282A (protein)
chain: MAGVGPGGYAAEFVPPPECPVFEPSWEEFTDPLSFIGRIRPLAEKTGICKIRPPKDWQPPFACEVKSFRFTPRVQRLNELEAMTRVRLDFLDQLAKFWELQGSTLKIPVVERKILDLYALSKIVASKGGFEMVTKEKKWSKVGSRLGYLPGKGTGSLLKSHYERILYPYELFQSGVSLMGVQMPNLDLKEKVEPEVLSTDTQTSPEPGTAMNILPKATAAVKTQSESGDVSANTELKKLQIFGAGPKVVGLAMGTKDKEDEVTAAAKVTNASDAFNMQMAQAKGTLSVNFVDLYVCMFCGRGNNEDKLLLCDGCDDSYHTFCLIPPLPDVPKGDWRCPKCVAEECSKPREAFGFEQAVREYTLQSFGEMADNFKSDYFNMPVHMVPTELVEKEFWRLVSSIEEDVIVEYGADISSKDFGSGFPVKDGRRKILPEEEEYALSGWNLNNMPVLEQSVLAHINVDISGMKVPWLYVGMCFSSFCWHIEDHWSYSINYLHWGEPKTWYGVPSHAAEQLEEVMRELAPELFESQPDLLHQLVTIMNPNVLMEHGVPVYRTNQCAGEFVVTFPRAYHSGFNQGYNFAEAVNFCTADWLPIGRQCVNHYRRLRRHCVFSHEELIFKMAADPECLDVGLAAMVCKELTLMTEEETRLRESVVQMGVLMSEEEVFELVPDDERQCSACRTTCFLSALTCSCNPERLVCLYHPTDLCPCPMQKKCLRYRYPLEDLPSLLYGVKVRAQSYDTWVSRVTEALSANFNHKKDLIELRVMLEDAEDRKYPENDLFRKLRDAVKEAETCASVAQLL
